Experimental data reported in PMC6203763.
Each block holds one molecule with its values, some of them ahead of it.

Tests used:
[1] = target: recombinant human wild-type SHMT2 (isoform 3) (human); experiment: SEC; recombinant proteins purified by nickel affinity chromatography, separated by gel filtration, fractions analysed by western blot
[2] = target: T1, Flag-tagged wild-type SHMT2 expressed in SHMT2-knockout HCT116 cells (human), P34897; experiment: cross-linking; cell lysates treated with or without 0.025% glutaraldehyde, western blot with anti-SHMT2; SHMT2-knockout HCT116 cells expressing Flag-tagged WT or K95Q, and SIRT3-knockout or control HCT116 cells; details: remark: other sources report otherwise
T1 chain: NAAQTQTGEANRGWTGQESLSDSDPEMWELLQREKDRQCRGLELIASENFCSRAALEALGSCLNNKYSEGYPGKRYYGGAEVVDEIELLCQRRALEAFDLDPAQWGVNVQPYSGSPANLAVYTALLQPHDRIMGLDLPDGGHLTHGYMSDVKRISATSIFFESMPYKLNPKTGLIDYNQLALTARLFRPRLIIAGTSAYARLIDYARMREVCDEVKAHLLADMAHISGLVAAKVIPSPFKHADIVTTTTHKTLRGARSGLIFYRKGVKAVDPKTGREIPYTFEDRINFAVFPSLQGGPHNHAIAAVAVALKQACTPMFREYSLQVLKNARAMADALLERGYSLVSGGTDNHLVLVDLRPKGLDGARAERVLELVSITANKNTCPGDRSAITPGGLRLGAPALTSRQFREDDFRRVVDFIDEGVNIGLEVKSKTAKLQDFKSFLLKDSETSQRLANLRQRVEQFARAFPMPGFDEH

[3] = target: T2, serine hydroxymethyltransferase 2 (SHMT2), endogenous in HCT116 cells (human (endogenous in HCT116)), P34897; experiment: as above; details: remark: other sources report otherwise
T2 chain: T1 chain

stoichiometry N [1]: 4
Molecule: recombinant human wild-type SHMT2 (isoform 3) (enzyme)

stoichiometry N [2]: 4
B1: Flag-tagged wild-type SHMT2 expressed in SHMT2-knockout HCT116 cells, P34897 30-504 (natural protein)
chain: T1 chain

stoichiometry N [3]: 4
B2: serine hydroxymethyltransferase 2 (SHMT2), endogenous in HCT116 cells, P34897 30-504 (natural protein)
chain: T1 chain
